We go through 14 molecules from patent publication US8563513 (VAN ANDEL RESEARCH INSTITUTE, dated 2013).

Where no end group is shown, it is not given here.

Assay [1] has as its target T1, PTH1R in cell membranes, G protein-uncoupled conformation (R0) (UniProt Q03431 27-593, limits assumed).
T1 construct: whole, on cells; Cell membranes, not intact cells; R0 state studied by including GTPγS in the reactions; also called G protein-uncoupled receptor
T1 sequence (looked up): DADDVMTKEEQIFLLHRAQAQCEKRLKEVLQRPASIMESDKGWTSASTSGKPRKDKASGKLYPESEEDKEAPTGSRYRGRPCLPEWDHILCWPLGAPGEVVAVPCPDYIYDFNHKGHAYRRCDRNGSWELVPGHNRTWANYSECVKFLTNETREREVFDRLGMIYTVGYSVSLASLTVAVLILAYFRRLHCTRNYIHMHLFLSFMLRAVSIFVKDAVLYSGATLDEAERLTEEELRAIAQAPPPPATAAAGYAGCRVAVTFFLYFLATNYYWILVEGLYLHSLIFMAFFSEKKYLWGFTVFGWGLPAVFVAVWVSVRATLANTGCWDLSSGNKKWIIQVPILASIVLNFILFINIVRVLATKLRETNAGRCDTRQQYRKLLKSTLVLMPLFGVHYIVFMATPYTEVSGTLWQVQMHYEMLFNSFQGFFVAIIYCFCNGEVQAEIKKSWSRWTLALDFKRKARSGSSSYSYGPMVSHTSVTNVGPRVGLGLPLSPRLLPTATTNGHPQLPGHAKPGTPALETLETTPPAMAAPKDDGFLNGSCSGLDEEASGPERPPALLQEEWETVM
In words: ratio of IC50 at R0 to IC50 at RG, cell membranes.

The target in assay [2] is T1, PTH1R in cell membranes, G …. In words: competition binding, PTH1R in cell membranes, R0 state (GTPγS), n = 3.
Assay [3] concerns the target T2, PTH1R in cell membranes, G protein-coupled conformation (RG) (UniProt Q03431 27-593).
T2 construct: whole, on cells; Cell membranes, not intact cells; RG state studied by co-expressing the receptor with dominant negative Gαs; also called G protein-coupled receptor
In words: competition binding, PTH1R in cell membranes, RG state (dominant negative Gαs), n = 3.

In assay [4] the target is T3, hPTH1R transiently expressed in COS-1 cells (human, UniProt Q03431 27-593).
T3 sequence (looked up): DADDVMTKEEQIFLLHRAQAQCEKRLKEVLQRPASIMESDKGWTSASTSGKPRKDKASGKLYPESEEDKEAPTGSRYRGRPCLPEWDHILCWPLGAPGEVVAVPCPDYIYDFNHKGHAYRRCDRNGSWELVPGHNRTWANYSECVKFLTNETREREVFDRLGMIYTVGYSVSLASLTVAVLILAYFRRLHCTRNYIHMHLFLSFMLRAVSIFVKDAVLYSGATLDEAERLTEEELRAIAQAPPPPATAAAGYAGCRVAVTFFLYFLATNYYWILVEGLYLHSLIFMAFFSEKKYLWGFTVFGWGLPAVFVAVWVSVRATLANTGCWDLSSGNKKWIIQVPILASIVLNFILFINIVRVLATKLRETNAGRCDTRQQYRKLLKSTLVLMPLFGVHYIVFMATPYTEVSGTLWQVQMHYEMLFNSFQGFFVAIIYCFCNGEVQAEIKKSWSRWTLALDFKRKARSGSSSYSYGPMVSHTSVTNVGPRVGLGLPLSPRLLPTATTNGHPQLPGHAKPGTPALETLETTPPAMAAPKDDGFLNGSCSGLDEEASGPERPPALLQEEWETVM
In words: cell-based or functional assay.

For assay [5], the target named is T4, MBP-PTH1R ECD-(His)6 fusion protein (UniProt Q03431 29-187).
T4 construct: range 29-187; Expressed in E. coli, disulfide shuffled in vitro; also called MBP-PTH1R ECD-H6; MBP-PTH1R ECD fusion protein
T4 sequence: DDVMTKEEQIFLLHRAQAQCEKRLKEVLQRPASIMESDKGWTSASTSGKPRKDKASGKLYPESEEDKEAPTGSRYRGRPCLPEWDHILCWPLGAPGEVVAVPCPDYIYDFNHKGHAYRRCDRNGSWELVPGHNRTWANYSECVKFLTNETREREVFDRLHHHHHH
In words: AlphaScreen competition; competitor titrated against biotin-PTH(7-34)NH2 (23 nM) on MBP-PTH1R ECD (23 nM) [panel B]. Here is the method:
(§1) ECD-peptide binding assays. The binding of peptides to the MBP-PTH1R ECD-H6 fusion protein was assessed using an AlphaScreen assay (Perkin-Elmer). […] The pre-coupling reactions were mixed, un-labeled competitor peptides were added as indicated, and the reactions were incubated 4 to 5 hrs to reach equilibrium. Photon counts were recorded in 384-well optiplates using an Envision 2104 plate reader (Perkin-Elmer). Prism 5.0 software (GraphPad Software, San Diego) was used to fit the data to a fixed-slope dose-response inhibition equation for determination of IC50 values. Real-time analysis of the binding of peptides to the isolated PTH1R ECD using the Octet Red system (ForteBio) was performed as described in below.
(Bead proximity is the source of the signal in Alpha formats.)

For assay [6], the target named is T4, MBP-PTH1R ECD-(His)6 fusion protein. In words: AlphaScreen competition against biotin-PTH(7-34)NH2 (23 nM) for MBP-PTH1R ECD-H6 (23 nM). Here is the method:
as §1

Assay [7] has the same target. In words: AlphaScreen competition; competitor titrated against biotin-PTH(7-34)NH2 (23 nM) on MBP-PTH1R ECD (23 nM) [panel A]. The procedure:
as §1

For SVSEIQLMHNLGKHLNSMERVEWLRKLLQDIHNF-NH2 [PTH(1-34)NH2 [K27L/V31I]], the RO/RG in assay [1] turned out to be 36.8 fold. The IC50 came out at 25 nM in assay [2] and 0.68 nM in assay [3]. For the same molecule, the entries for the “IC50 Log M” value in assay [2] and in assay [3] were -7.6 Log M and -9.3 Log M, respectively.

Regarding SVSEIQLMHNLGKHLNSMERVEFLRKKLQDIHNF-NH2 (also called PTH(W23′F/V31′I)) [PTH(1-34)NH2 [W23′F/V31′I]], in assay [1], the RO/RG came to 386 fold. Besides, in assay [2], the IC50 worked out at 81 nM and the “IC50 Log M” value is -7.1 Log M. For the same molecule, in assay [3], the IC50 is 0.21 nM and the “IC50 Log M” value was -9.7 Log M. For the same molecule, in assay [4], the “EC50, cAMP accumulation dose-response” value was 0.0415 nM and the “maximal cAMP level relative to wt peptide” value was approximately 80%.

As to SVSEIQLMHNLGKHLNSMERVEWLRKLLQDVHNF-NH2 (also called 07-12-12-07-SBSL) [PTH(1-34)[K27L]NH2], the RO/RG in assay [1] was 11.9 fold. In addition, in assay [2], the IC50 came out at 6.4 nM and the “IC50 Log M” value is -8.2 Log M. Moreover, in assay [3], the IC50 amounted to 0.54 nM and the “IC50 Log M” value was -9.3 Log M.

Regarding SVSEIQLMHNLGKHLNSMERVEFLRKKIQDVHNF-NH2 [PTH(1-34)NH2 [W23F/L28I]], the RO/RG in assay [1] amounted to 190 fold. Further, in assay [2], the IC50 is 38 nM and the “IC50 Log M” value was -7.4 Log M. For the same molecule, in assay [3], the IC50 worked out at 0.2 nM and the “IC50 Log M” value is -9.7 Log M.

As for SVSEIQLMHNLGKHLNSMERVEFLRKLLQDVHNF-NH2 [PTH(1-34)NH2 [W23F/K27L]], the RO/RG in assay [1] turned out to be 26.4 fold. Also, in assay [2], the IC50 came to 8.7 nM and the “IC50 Log M” value was -8.1 Log M. Further, in assay [3], the IC50 came to 0.33 nM and the “IC50 Log M” value is -9.6 Log M.

For the molecule SVSEIQLMHNLGKHLNSMERVEWLRKKIQDIHNF-NH2 [PTH(1-34)NH2 [L28I/V31I]], the RO/RG in assay [1] turned out to be 135 fold. Also, in assay [2], the IC50 came to 42 nM and the “IC50 Log M” value is -7.4 Log M. Also, in assay [3], the IC50 is 0.31 nM and the “IC50 Log M” value is -9.6 Log M.

Turning to SVSEIQLMHNLGKHLNSMERVEWLRKKLQDIHNF-NH2 [PTH(1-34)NH2 [V31I]], in assay [1], the RO/RG was 110 fold. For the same molecule, in assay [2], the IC50 was determined as 34 nM and the “IC50 Log M” value is -7.5 Log M. Besides, in assay [3], the IC50 was 0.31 nM and the “IC50 Log M” value was -9.6 Log M.

As for SVSEIQLMHNLGKHLNSMERVEFLRKLIQDIHNF-NH2 [PTH(1-34)NH2 [W23F/K27L/L28I/V31I]], the RO/RG in assay [1] worked out at 68 fold. Further, in assay [2], the IC50 turned out to be 53 nM and the “IC50 Log M” value was -7.3 Log M. In assay [3], the IC50 is 0.78 nM and the “IC50 Log M” value is -9.2 Log M.

As for SVSEIQLMHNLGKHLNSMERVEFLRKKLQDVHNF-NH2 [PTH(1-34)NH2 [W23F]], the RO/RG in assay [1] turned out to be 59 fold. Moreover, the IC50 in assay [2] stood at 13.5 nM; in assay [3], 0.23 nM. Further, the results for the “IC50 Log M” value in assay [2] and in assay [3] were -7.9 Log M and -9.7 Log M, respectively.

As for SVSEIQLMHNLGKHLNSMERVEWLRKKIQDVHNF-NH2 [PTH(1-34)NH2 [L28I]], the RO/RG in assay [1] turned out to be 45 fold. Also, in assay [2], the IC50 was 4.5 nM and the “IC50 Log M” value was -8.4 Log M. For the same molecule, in assay [3], the IC50 stood at 0.1 nM and the “IC50 Log M” value is -10 Log M.

For the molecule GKSIQDLRRRFFLHHLIAEIHTA-OH (Free C-terminal carboxylic acid) [PTHrP(12-34)OH], in assay [5], the “IC50 (read off the curve)” value is approximately 2000 nM. The molecule further showed an IC50 in assay [6] of approximately 2000 nM.

B1: PTHrP(12-34)NH2 (peptide)
peptide: GKSIQDLRRRFFLHHLIAEIHTA-NH2
notes: also called C-terminally amidated 12-34 fragment of PTHrP
Regarding B1, the “IC50 (read off the curve)” value in assay [5] is approximately 1000 nM. In addition, in assay [6], the IC50 was approximately 2000 nM.

With GKHLNSMERVEWLRKKLQDVHNF-NH2 [PTH(12-34)NH2], in assay [7], the “IC50 (read off the curve)” value was approximately 800 nM. In assay [6], the IC50 was approximately 1000 nM.

As for AVSEHQLLHDKGKSIQDLRRRFWLHHKLAEVHTA-NH2 [PTHrP(1-34)NH2 [F23′W/L27′K/I28′L/I31′V]], the RO/RG in assay [1] came out at 586 fold. Further, in assay [2], the IC50 was found to be 41 nM and the “IC50 Log M” value is -7.4 Log M. In assay [3], the IC50 is 0.07 nM and the “IC50 Log M” value was -10.1 Log M.

As a reminder, the IC50 is the concentration that gives 50% inhibition.
